# Reference: patent US20170327598A1, “SINGLE DOMAIN ANTIBODIES DIRECTED AGAINST INTRACELLULAR ANTIGENS” (SINGH MOLECULAR MEDICINE, LLC, priority 2014, published 2017)
# Several values for one entry are separate records, joined by “and”; a condition that tells them apart may be missing. Equal entries are not always repeated.
# Legend:
# endogenous STAT3 = biological target: T1, endogenous STAT3 (Homo sapiens, UniProt P40763); experiment: Immunoprecipitation of endogenous STAT3 from MDA-MB-231 lysate, Western blot; format: binding; details: FIG. 3
# T1 construct: endogenous STAT3 immunoprecipitated with all sdAbs tested at varying amounts; endogenous in cells
# T1 sequence (P40763 whole entry): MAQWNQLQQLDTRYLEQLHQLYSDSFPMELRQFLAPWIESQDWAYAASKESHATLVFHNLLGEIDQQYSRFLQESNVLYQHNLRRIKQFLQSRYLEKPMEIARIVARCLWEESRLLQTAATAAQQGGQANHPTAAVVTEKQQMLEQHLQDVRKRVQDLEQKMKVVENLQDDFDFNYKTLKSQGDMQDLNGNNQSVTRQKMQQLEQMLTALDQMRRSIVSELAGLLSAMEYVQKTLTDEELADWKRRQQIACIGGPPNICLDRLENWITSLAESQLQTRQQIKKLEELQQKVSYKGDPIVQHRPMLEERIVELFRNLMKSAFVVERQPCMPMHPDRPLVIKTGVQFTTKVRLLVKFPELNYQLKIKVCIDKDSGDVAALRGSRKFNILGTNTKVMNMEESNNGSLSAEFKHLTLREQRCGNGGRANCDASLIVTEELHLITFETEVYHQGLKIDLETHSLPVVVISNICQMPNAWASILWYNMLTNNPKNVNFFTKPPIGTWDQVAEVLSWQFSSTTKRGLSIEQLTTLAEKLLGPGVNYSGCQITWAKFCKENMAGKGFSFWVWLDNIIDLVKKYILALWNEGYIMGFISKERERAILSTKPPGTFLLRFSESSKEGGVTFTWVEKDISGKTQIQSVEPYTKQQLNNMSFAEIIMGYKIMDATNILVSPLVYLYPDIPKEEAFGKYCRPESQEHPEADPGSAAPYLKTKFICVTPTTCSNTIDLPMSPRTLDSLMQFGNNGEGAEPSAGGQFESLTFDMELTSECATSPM
# Procedure: The specificity of STAT3 sdAbs was assayed in human breast cancer cells. […] The cells were then disrupted in freshly prepared ice-cold lysis buffer (20 mM HEPES, pH 7.9, 400 mM NaCl, 0.1% NP-40, 10% glycerol, 1 mM sodium vanadate, 1 mM sodium fluoride, 1 mM dithiothreitol, 1 mM phenylmethylsulfonyl fluoride, 10 μg/mL aprotinin, 10 μg/mL leupeptin) for 45 minutes on ice. Lysates were then centrifuged, the supernatant collected, and protein concentration was determined using a modified Lowry method (Bio Rad, Hercules, Calif.). Total protein (1 mg) was incubated with 1.5 mg of Dynabeads (Invitrogen) with sdAbs against STAT3, a positive control (STAT3, cat#SC-482, Santa Cruz Biotechnology, Dallas, Tex.), or negative control (STAT-1, cat#9172, Cell Signaling, Danvers, Mass.) for 1 hour at 4° C. Beads were then washed. Following the final wash, 60 μl of lysis buffer was added, and the resulting supernatant was subject to Western blot analysis. Briefly, samples were separated on 10% polyacrylamide gels and transferred to a nitrocellulose membrane. The membranes were blocked, then incubated with appropriate primary and secondary antibodies. Anti-STAT3 antibody, used as a positive control, was from Cell Signaling (Cat#4904, Danvers, Mass.). The chemiluminescence reaction was performed using the ECL system from Santa Cruz Biotechnology (Dallas, Tex.).
# MDA-MB-231 cells = experiment: MTT proliferation assay, MDA-MB-231; format: cell-based, human
# PANC-1 cells = experiment: MTT proliferation assay, PANC-1; format: cell-based, human; details: for Mean Absorbance (570 nM) ± S.E.: single experiments 1-3
# [1] = tested on: STAT3 reporter, induction by interleukin-6; experiment: STAT3 reporter GloResponse SIE-luc2P/HEK293 cell assay, IL-6 induction; format: cell-based;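 note: IL-6 added at 40 ng/mL (EC80) for roughly one day after pretreatment, luciferase luminescence read with Bio-Glo reagent, untreated +IL6 wells serve as control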
# [2] = tested on: GloResponse SIE-luc2P/HEK 293 cells; experiment: BCA protein concentration of reporter cells run in parallel; format: cell-based
# [3] = tested on: rabbit anti-llama biotinylated antibody or his-probe (H-3) biotin labeled antibody; experiment: ELISA with sdAbs coated, binding of secondary antibodies (Experiments 2 and 3)
# Procedure: Two assays (Experiment 2 and 3) were performed to assess the binding of the secondary antibody to the sdAbs. A similar ELISA method was utilized except the sdAbs were directly coated onto the assay plate at a concentration of 1 μg/mL. Plates were incubated overnight at 2-8° C. After the incubation, plates were washed (3×) and blocked (3% BSA in PBS) for at least one hour at room temperature.
# After removal of the blocking buffer and washing (3×), the secondary antibodies, either rabbit anti-llama biotinylated antibody or his-probe (H-3) biotin labeled antibody at was then added at a 1:5,000 dilution to each well and incubated with shaking for at least one hour at room temperature. Only the rabbit anti-llama biotinylated antibody was used in Experiment 2. Both antibodies were run in parallel in Experiment 3.
# After the incubation with secondary antibody, the plates were again washed (3×) and HRP at a 1:50,000 dilution was added to each well. Plates were incubated with shaking for at least one hour at room temperature. One last wash (3×) was performed followed by the addition of TMB substrate and plates were incubated at room temperature. For the anti-llama biotinylated antibody stop solution was added to halt the colorimetric reaction at 10 minutes. The his-probe (H-3) biotin labeled antibody was allowed to incubate for 20 minutes prior to stopping. The absorbance at 450 nm was measured as before.
# [4] = MDA-MB-231, 5 days of treatment, 0.5 μg/ml
# [5] = MDA-MB-231, 5 days of treatment, 1.0 μg/ml
# [6] = MDA-MB-231, 5 days of treatment, 10.0 μg/ml
# [7] = MDA-MB-231, 5 days of treatment, 100.0 μg/ml
# [8] = 24 Hour Treatment Prior to IL6 Induction, high conc.: VHH13 55.8 μg/mL, VHH14 84.3 μg/mL, BB1608 4.16 μM, VHH69 50.5 μg/mL
# [9] = 24 Hour Treatment Prior to IL6 Induction, low conc.: VHH13, VHH14, VHH69 10 μg/mL, BB1608 2 μM
# [10] = 48 Hour Treatment Prior to IL6 Induction, high conc.: VHH13 55.8 μg/mL, VHH14 84.3 μg/mL, BB1608 4.16 μM, VHH69 50.5 μg/mL
# [11] = 48 Hour Treatment Prior to IL6 Induction, low conc.: VHH13, VHH14, VHH69 10 μg/mL, BB1608 2 μM
molecule,measurement,setting,value
"H.VHH14: anti-STAT3 sdAb VHH14 (SEQ ID NO:4), presumably the form produced in mammalian cells (protein, Camelid) VHH: QVQLVESGGGSVQAGGSLRLSCVASTYTGCMGWFRQAPGKEREGVAALSSRGFAGHYTDSVKGRFSISRDYVKNAVYLQMNTVKPEDAAMYYCAAREGWECGETWLDRTAGGHTYWGQGTLVTVSS",immunoprecipitation of endogenous STAT3,endogenous STAT3,immunoprecipitated
same,% Inhibition,"MDA-MB-231 cells; MDA-MB-231, 3 days of treatment, 1.0 μg/ml",0.5%
same,% Inhibition,MDA-MB-231 cells; [4],9.5%
same,% Inhibition,MDA-MB-231 cells; [5],4.9%
same,% Inhibition,MDA-MB-231 cells; [6],18.2%
same,% Inhibition,MDA-MB-231 cells; [7],18.9%
same,Mean Absorbance (570 nM) ± S.E.,"MDA-MB-231 cells; MDA-MB-231, Day 3, 0.5 μg/ml",0.485 ± 0.040
same,Mean Absorbance (570 nM) ± S.E.,"MDA-MB-231 cells; MDA-MB-231, Day 3, 1.0 μg/ml",0.402 ± 0.017
same,Mean Absorbance (570 nM) ± S.E.,"MDA-MB-231 cells; MDA-MB-231, Day 3, 10.0 μg/ml",0.588 ± 0.020
same,Mean Absorbance (570 nM) ± S.E.,"MDA-MB-231 cells; MDA-MB-231, Day 3, 100 μg/ml",0.416 ± 0.030
same,Mean Absorbance (570 nM) ± S.E.,"MDA-MB-231 cells; MDA-MB-231, Day 5, 0.5 μg/ml",0.890 ± 0.021
same,Mean Absorbance (570 nM) ± S.E.,"MDA-MB-231 cells; MDA-MB-231, Day 5, 1.0 μg/ml",0.935 ± 0.037
same,Mean Absorbance (570 nM) ± S.E.,"MDA-MB-231 cells; MDA-MB-231, Day 5, 10.0 μg/ml",0.804 ± 0.015
same,Mean Absorbance (570 nM) ± S.E.,"MDA-MB-231 cells; MDA-MB-231, Day 5, 100 μg/ml",0.797 ± 0.010
same,"Mean Absorbance (570 nM) ± S.E., Overall Mean","PANC-1 cells; PANC-1, Day 3, 10.0 μg/ml",1.089 ± 0.085
same,Mean Absorbance (570 nM) ± S.E.,"PANC-1 cells; PANC-1, Day 3, 10.0 μg/ml",0.920 ± 0.133 and 1.183 ± 0.114 and 1.163 ± 0.044
same,"Mean Absorbance (570 nM) ± S.E., Overall Mean","PANC-1 cells; PANC-1, Day 3, 100 μg/ml",0.906 ± 0.054
same,Mean Absorbance (570 nM) ± S.E.,"PANC-1 cells; PANC-1, Day 3, 100 μg/ml",0.808 ± 0.239 and 0.993 ± 0.088 and 0.916 ± 0.088
same,"Mean Absorbance (570 nM) ± S.E., Overall Mean","PANC-1 cells; PANC-1, Day 5, 10.0 μg/ml",1.368 ± 0.247
same,Mean Absorbance (570 nM) ± S.E.,"PANC-1 cells; PANC-1, Day 5, 10.0 μg/ml",1.859 ± 0.033 and 1.165 ± 0.015 and 1.081 ± 0.103
same,"Mean Absorbance (570 nM) ± S.E., Overall Mean","PANC-1 cells; PANC-1, Day 5, 100 μg/ml",0.754 ± 0.333
"Anti-STAT3 VHH14: second anti-STAT3 single domain antibody, SEQ ID NO:4 (protein, Camelid) VHH: QVQLVESGGGSVQAGGSLRLSCVASTYTGCMGWFRQAPGKEREGVAALSSRGFAGHYTDSVKGRFSISRDYVKNAVYLQMNTVKPEDAAMYYCAAREGWECGETWLDRTAGGHTYWGQGTLVTVSS",immunoprecipitation of endogenous STAT3,endogenous STAT3,immunoprecipitated
same,Average RLU,[1]; [8],496624 RLU
same,Average RLU with Media Blank,[1]; [8],496598 RLU
same,"Luminescence (RLU), single wells",[1]; [8],465649 RLU and 520343 RLU and 503880 RLU
same,Average RLU,[1]; [9],214828 RLU
same,Average RLU with Media Blank,[1]; [9],214803 RLU
same,"Luminescence (RLU), single wells",[1]; [9],218125 RLU and 203210 RLU and 223150 RLU
same,Average RLU,[1]; [10],480595 RLU
same,Average RLU with Media Blank,[1]; [10],480562 RLU
same,"Luminescence (RLU), single wells",[1]; [10],494706 RLU and 488307 RLU and 458771 RLU
same,Average RLU,[1]; [11],232537 RLU
same,Average RLU with Media Blank,[1]; [11],232504 RLU
same,"Luminescence (RLU), single wells",[1]; [11],241785 RLU and 236843 RLU and 218982 RLU
same,effect on IL-6 induction of STAT3 reporter,[1]; 24 hours and 48 hours treatment prior to IL-6,enhancement of the IL-6 induction
same,Protein concentration,[2]; [8],270
same,Protein concentration,[2]; [9],189
same,Protein concentration,[2]; [10],229
same,Protein concentration,[2]; [11],216
same,OD450 Values,"[3]; His-probe (H-3), Experiment 3, stored 1:100 dilution of sdAb",3.416
same,OD450 Values,"[3]; Rabbit anti-Llama Secondary Antibody, Experiment 2, sdAb coated at 1 μg/mL",2.813
same,OD450 Values,"[3]; Rabbit anti-Llama Secondary Antibody, Experiment 3, stored 1:100 dilution of sdAb",2.439
same,% Inhibition,"MDA-MB-231 cells; MDA-MB-231, 3 days of treatment, 10.0 μg/ml",23.1%
same,% Inhibition,"MDA-MB-231 cells; MDA-MB-231, 3 days of treatment, 100.0 μg/ml",57.0%
same,Overall Average % Inhibition,"MDA-MB-231 cells; MDA-MB-231, 3 days, 10.0 μg/ml",26.2%
same,Mean Growth Inhibition,"MDA-MB-231 cells; MDA-MB-231, 3 days, 10.0 μg/ml, single experiments 1-4, listed as B.VHH14",23.1% and 20.0% and 38.5% and 23.3%
same,Overall Average % Inhibition,"MDA-MB-231 cells; MDA-MB-231, 3 days, 100 μg/ml",55.7%
same,Mean Growth Inhibition,"MDA-MB-231 cells; MDA-MB-231, 3 days, 100 μg/ml, single experiments 1-4, listed as B.VHH14",57.0% and 42.8% and 62.3% and 60.6%
same,% Inhibition,MDA-MB-231 cells; [4],0%
same,% Inhibition,MDA-MB-231 cells; [5],0%
same,% Inhibition,MDA-MB-231 cells; [6],5.5%
same,% Inhibition,MDA-MB-231 cells; [7],18.9%
same,Overall Average % Inhibition,"MDA-MB-231 cells; MDA-MB-231, 5 days, 10.0 μg/ml",14.9%
same,Overall Average % Inhibition,"MDA-MB-231 cells; MDA-MB-231, 5 days, 100 μg/ml",38.6%
same,Mean Absorbance (570 nM) ± S.E.,"MDA-MB-231 cells; MDA-MB-231, Day 3, 0.5 μg/ml",0.666 ± 0.022
same,Mean Absorbance (570 nM) ± S.E.,"MDA-MB-231 cells; MDA-MB-231, Day 3, 1.0 μg/ml",0.644 ± 0.045
same,Mean Absorbance (570 nM) ± S.E.,"MDA-MB-231 cells; MDA-MB-231, Day 3, 10.0 μg/ml",0.456 ± 0.048
same,Mean Absorbance (570 nM) ± S.E.,"MDA-MB-231 cells; MDA-MB-231, Day 3, 100 μg/ml",0.255 ± 0.005
same,Mean Absorbance (570 nM) ± S.E.,"MDA-MB-231 cells; MDA-MB-231, Day 5, 0.5 μg/ml",0.733 ± 0.038
same,Mean Absorbance (570 nM) ± S.E.,"MDA-MB-231 cells; MDA-MB-231, Day 5, 1.0 μg/ml",0.794 ± 0.023
same,Mean Absorbance (570 nM) ± S.E.,"MDA-MB-231 cells; MDA-MB-231, Day 5, 10.0 μg/ml",0.640 ± 0.011
same,Mean Absorbance (570 nM) ± S.E.,"MDA-MB-231 cells; MDA-MB-231, Day 5, 100 μg/ml",0.549 ± 0.023
same,"Mean Absorbance (570 nM) ± S.E., Overall Mean","MDA-MB-231 cells; Table 6, MDA-MB-231, Day 3, 10.0 μg/ml",0.504 ± 0.021
same,Mean Absorbance (570 nM) ± S.E.,"MDA-MB-231 cells; Table 6, MDA-MB-231, Day 3, 10.0 μg/ml, single experiments 1-4, listed as B.VHH14",0.456 ± 0.048 and 0.499 ± 0.018 and 0.502 ± 0.048 and 0.559 ± 0.041
same,"Mean Absorbance (570 nM) ± S.E., Overall Mean","MDA-MB-231 cells; Table 6, MDA-MB-231, Day 3, 100 μg/ml",0.302 ± 0.043
same,Mean Absorbance (570 nM) ± S.E.,"MDA-MB-231 cells; Table 6, MDA-MB-231, Day 3, 100 μg/ml, single experiments 1-4, listed as B.VHH14",0.255 ± 0.005 and 0.357 ± 0.019 and 0.308 ± 0.021 and 0.287 ± 0.021
same,"Mean Absorbance (570 nM) ± S.E., Overall Mean","MDA-MB-231 cells; Table 7, MDA-MB-231, Day 5, 10.0 μg/ml",0.688 ± 0.131
same,"Mean Absorbance (570 nM) ± S.E., Overall Mean","MDA-MB-231 cells; Table 7, MDA-MB-231, Day 5, 100 μg/ml",0.475 ± 0.0690
